The values below come from the RNAGym collection of RNA variant scans (doi:10.7554/elife.80360).

B1: HDV Ribozyme (parent)
chain: GGCCGGCAUGGUCCCAGCCUCCUCGCUGGCGCCGGCUGGGCAACAUUCCGAGGGGACCGUCCCCUCGGUAAUGGCGAAUGGGACCCA

The variants in this series derive from B1. Put plainly: self-cleavage, relative activity (ratio to wild type); higher = more cleavage; co-transcriptional.
On to C36U G73A, for which the self-cleavage is 0.428.
Turning to C18A U37C, the self-cleavage came to 0.0361.
As to G10C C14U, the self-cleavage was 1.11.
In the case of C32A G59A, the self-cleavage stood at 0.373.
Take U9A C62U: the self-cleavage is 1.06.
Take A8G U65A: the self-cleavage is 0.89.
As for C7G A8U, the self-cleavage turned out to be 0.104.
As for A51U G74C, the self-cleavage is 0.243.
Next, G17U U60C: 0.601; G39C G55U: 0.305.
As for G5A G59C, the self-cleavage was 0.219.
With C18A G34U, the self-cleavage amounted to 0.0489.
Turning to C61A A70U, the self-cleavage came out at 1.17.
Next, C48A C84A: 1.08.
C24G A42C: the self-cleavage was 0.101.
Next, G40A C66A: 0.808; G17A A71G: 0.675; C33A U37G: 0.119.
As to C3G G59C, the self-cleavage was 0.903.
Next, G28U G81C: 0.0282; G35C C84G: 0.116; C7A C61G: 0.806.
With U72C A87G, the self-cleavage was 0.712.
G1A: the self-cleavage came out at 0.143.
Next, G31A G34A: 0.0934.
For the variant G53C G80U, the self-cleavage amounted to 0.293.
Turning to U23C A45G, the self-cleavage came out at 0.8.
Regarding G5U G29U, the self-cleavage amounted to 0.0594.
With C13A C26A, the self-cleavage was 0.623.
With G17U A71G, the self-cleavage turned out to be 0.323.
In the case of G5C A83U, the self-cleavage was found to be 0.
With G50U A70U, the self-cleavage was determined as 0.946.
Turning to C7A C64U, the self-cleavage was found to be 0.491.
Next, G35U G73C: 0.185; G39A U72G: 0.102.
C4A U37A: the self-cleavage was 0.0332.
Take C30G G73A: the self-cleavage is 0.0455.
As to C44G G50C, the self-cleavage was found to be 0.739.
Turning to C44G G50U, the self-cleavage amounted to 0.767.
G35C A45C: the self-cleavage was found to be 0.
For C32A C49U, the self-cleavage came to 0.0997.
Turning to G52U C85A, the self-cleavage came to 0.784.
Consider C21U C30A, for which the self-cleavage was 0.153.
In the case of C3U A45G, the self-cleavage was found to be 0.607.
Next, G11U C41A: 0.201; C3G G81U: 0.185; G40C C49G: 0.261.
Consider C24U A71C, for which the self-cleavage was 0.453.
For the variant G25U G73A, the self-cleavage was 0.0923.
As for G25U G73C, the self-cleavage is 0.0415.
As for C3G G52U, the self-cleavage came to 0.691.
G5A G81A: the self-cleavage was 0.0978.
With U27G C61U, the self-cleavage came out at 0.831.
Take G39C G53U: the self-cleavage was found to be 0.133.
In the case of C3G A70C, the self-cleavage stood at 0.508.
In the case of C3A C7G, the self-cleavage worked out at 0.0223.
As to A51U A87U, the self-cleavage amounted to 1.03.
For the variant C14A G31U, the self-cleavage turned out to be 0.148.
Consider C4A U79G, for which the self-cleavage stood at 0.
Next, A43U G73A: 0.322; C30U G82A: 0.229; G34C A71U: 0.095.
G11U A83U: the self-cleavage was determined as 0.138.
With U12G A83U, the self-cleavage amounted to 0.867.
Next, G55C A56G: 1.15.
As to G10C U20C, the self-cleavage is 0.0739.
As for C18G C63G, the self-cleavage was determined as 0.199.
As for C13G C26A, the self-cleavage was found to be 0.35.
As to G11U G34C, the self-cleavage is 0.166.
On to C7G U69A, for which the self-cleavage is 0.237.
As to A42G G50U, the self-cleavage was found to be 0.542.
For the variant G1C U60G, the self-cleavage was found to be 0.0594.
Regarding C49A A70G, the self-cleavage worked out at 0.689.
For G50C U60A, the self-cleavage worked out at 1.03.
For the variant C44U C48U, the self-cleavage turned out to be 0.898.
For C24G C41G, the self-cleavage is 0.
Consider U37C A43U, for which the self-cleavage came to 0.172.
On to G10A G34U, for which the self-cleavage stood at 0.257.
Next, U12C G73U: 0.0811.
In the case of C18G C26A, the self-cleavage worked out at 0.175.
Next, C64A C86A: 0.942; C26G C84U: 0.696; G53A C85A: 0.933.
For C62G C85A, the self-cleavage is 0.717.
Next, U47C G53U: 0.966.
Take G1A U46C: the self-cleavage was found to be 0.208.
Consider C13U A78U, for which the self-cleavage came to 0.
Next, C58G G67C: 0.739.
Consider G5U G10U, for which the self-cleavage came out at 0.181.
For G34U U69C, the self-cleavage was 0.204.
C36G C85G: the self-cleavage was 0.161.
Next, A8C U20G: 0.175; G5C A43U: 0.0489.
In the case of C13G C62A, the self-cleavage was determined as 0.0692.
For C36A U46C, the self-cleavage came out at 0.166.
Turning to A8G U79C, the self-cleavage is 0.256.
In the case of G11C G68A, the self-cleavage is 0.295.
With U47A G68A, the self-cleavage came out at 1.09.
For the variant C22U G54U, the self-cleavage amounted to 0.808.
Regarding U12A C24A, the self-cleavage stood at 0.104.
For A45C G80A, the self-cleavage stood at 0.187.
Next, G25C C44A: 0.185.
As to U69G G73U, the self-cleavage was 0.314.
For the variant U23G C48U, the self-cleavage stood at 0.731.
Next, G5U A77C: 0.192; A43G A83C: 0.268; U46C G82U: 0.138.
In the case of U65C G74A, the self-cleavage worked out at 0.456.
Regarding C36U C64G, the self-cleavage stood at 0.606.
G5A G54A: the self-cleavage was 0.177.
In the case of A56G U65A, the self-cleavage was determined as 0.867.
Next, G54U U69G: 1.03.
For G40A G55C, the self-cleavage was found to be 1.01.
On to C21A G34U, for which the self-cleavage came out at 0.0647.
As for C21A C32G, the self-cleavage stood at 0.0426.
With C32G U72A, the self-cleavage was determined as 0.0489.
As for G25U G29A, the self-cleavage worked out at 0.0369.
As to U37A G81A, the self-cleavage was 0.166.
Consider C32U G67C, for which the self-cleavage was found to be 0.997.
Turning to G31U G50U, the self-cleavage was determined as 0.415.
On to G52A C62U, for which the self-cleavage was 1.12.
Regarding G25U C85A, the self-cleavage is 0.125.
Turning to C14U C41A, the self-cleavage turned out to be 1.06.
With C14G G74C, the self-cleavage is 0.0639.
Next, G68U G80U: 0.257; C64U A77G: 1.01; G11C G73A: 0.0936.
Next, C14G G67U: 0.594; C24A A45C: 0.19.
On to G2C A43C, for which the self-cleavage came out at 0.147.
For G29A A77C, the self-cleavage was found to be 0.111.
Take G53C C86U: the self-cleavage is 0.799.
As to C18G G50U, the self-cleavage came out at 0.196.
Regarding U27C C85G, the self-cleavage is 0.751.
As for G55U C64A, the self-cleavage turned out to be 0.94.
Next, C4U C26A: 0.773; G39A G67U: 0.351; C44G U72C: 0.198.
Next, U47A A71U: 0.657; C33A G38C: 0.151.
Regarding C32G U37G, the self-cleavage was determined as 0.0554.
On to G52U G59U, for which the self-cleavage is 0.984.
Regarding C64G C86A, the self-cleavage was found to be 0.946.
A45U C63G: the self-cleavage turned out to be 0.63.
As to G17A C85A, the self-cleavage is 0.727.
For G10C C61G, the self-cleavage worked out at 0.808.
Next, C19G C44G: 0.0959; A51G C64U: 0.892.
Next, G11U G50C: 0.359; C19U C44U: 0.0852; A56U C84G: 0.697.
In the case of G40U C41G, the self-cleavage amounted to 0.729.
Next, C3G G53A: 0.742; G6U C26G: 0.364; C13U C30A: 0.102.
Consider G68U A83C, for which the self-cleavage turned out to be 0.538.
On to C7G U37G, for which the self-cleavage was 0.
Consider U20A U65G, for which the self-cleavage amounted to 0.101.
Consider G6A C41G, for which the self-cleavage turned out to be 0.107.
As to U27G C36G, the self-cleavage was determined as 0.0665.
With G10U A87U, the self-cleavage amounted to 0.653.
With G54C U72A, the self-cleavage was 0.702.
For the variant C30U A45G, the self-cleavage was found to be 0.796.
C26G C61U: the self-cleavage was 1.06.
Take G11A C61G: the self-cleavage was found to be 0.332.
On to A70C G76U, for which the self-cleavage stood at 1.05.
In the case of U37C C61A, the self-cleavage was 1.2.
